Experimental findings from the supplement of paper PMC10567573 are described below.

± gives the standard deviation.

A short description of the series: protein stability index of a GFP-peptide fusion (GPS, HEK-293T) (PSI 1-6); higher = more stable.
[1] abbreviates: treatment: DMSO, c terminus: a fixed tail appended.
The mark [2] stands for this setting: treatment: MLN4924 1 uM, 8 h, c terminus: a fixed tail appended.
Setting [3] is: treatment: DMSO, c terminus: native.
Setting [4] is: treatment: MLN4924 1 uM, 8 h, c terminus: native.
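Further: 24-mer peptide tiles fused after GFP, lentivirally expressed, FACS-sorted into six equal bins by GFP/DsRed ratio, decoded by Illumina sequencing, PSI is the read-weighted mean bin number.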

With PASSRNRSPSGSLRSARGSRGGTR [RBMY1A1], the protein stability index by setting is: under setting [1], 5.14 ± 0.37; under setting [2], 5.25 ± 0.24.
The corresponding values for QSNYDTKGKTAVDTVFRFDPRYNK [KLHL13] are 3.49 ± 0.23 and 4.17 ± 0.22.
With YSLRILIGDPPHHDHHDEFCLMP [BEX5], the protein stability index reads like this: under setting [3], 2.62 ± 0.4; under setting [4], 2.03 ± 0.35.
With EVVVAESELQKELKKVKTAHSNDG [DPCD], the protein stability index runs as follows: under setting [1], 5.18 ± 0.25; under setting [2], 5.25 ± 0.32.
Consider LAKDFIRRLLVKDPKRRMTIAQSL [DAPK3], for which the protein stability index stood at 2.96 ± 0.3 under setting [1] and 2.7 ± 0.051 under setting [2].
The matching figures for VCIVQKNDTKKMYAMKYMNKQKCV [STK32A]: 2.21 ± 0.11 and 2.5 ± 0.45.
The corresponding values for IVLLEELLPKGSKEEQRDYVFYLA [FIS1] are 2.33 ± 0.34 and 2.16 ± 0.44.
The matching figures for FRKFIPKCSKIVIDFDSINSRPSQ [DCTD]: 2.4 ± 0.27 and 2.15 ± 0.33.
In the case of ADPLDTPPDSKEGIVVESNHDSHM [PDZK1], the protein stability index runs as follows: under setting [1], 5.53 ± 0.1; under setting [2], 5.36 ± 0.33.
Consider QPFYHDDSYTATGYGRAPGGLSLH [JUNB], for which the protein stability index under setting [1] was 3.18 ± 0.39 and the protein stability index under setting [2] was determined as 3.36 ± 0.24.
The corresponding values for TDGGGWLVFQRRMDGQTDFWRDWE [TNXB] are 2.33 ± 0.53 and 2.25 ± 0.65.
Take FDHPIPRVFQNRFSTQYRCFSVSM [UFD1]: the protein stability index reads like this: under setting [1], 2.89 ± 1; under setting [2], 2.45 ± 0.6.
As to NSLRGVILDIHFLSQADFLVCTFS [FUT8], the protein stability index runs as follows: under setting [1], 2.72 ± 0.71; under setting [2], 2.79 ± 0.49.
The matching figures for LFTDRMATRSTTQSNRTSRLIGKK [WEE1]: 4.25 ± 0.1 and 4.4 ± 0.063.
The corresponding values for PSSLNSPSSYNCSQSILPLEHGSI [ESR2] are 3.15 ± 0.31 and 3.13 ± 0.12.
The corresponding values for KMNGSHRDQGSSALSGVGGIRLPN [IKZF1] are 4.1 ± 0.32 and 3.8 ± 0.12.
Consider PAAMGPPGAPPGRDLASVPPELTA [DVL3], for which the protein stability index turned out to be 4.88 ± 0.29 under setting [1] and 4.89 ± 0.075 under setting [2].
The matching figures for AKECMLQEENKSLREENKALREEN [CBY2]: 5.55 ± 0.22 and 5.51 ± 0.2.
The corresponding values for LNMFLAIINDTYSEVKEELAGQKD [PKD2L1] are 2.21 ± 0.3 and 2.37 ± 0.43.
On to EERATRLAELQEQLKAVHEQLAAL [BRD3], for which the protein stability index is 4.59 ± 0.22 under setting [1] and 4.31 ± 0.062 under setting [2].
As to VLLMHMPAEQAFWCLVQICEKYLP [TBC1D10A], the protein stability index is, setting by setting: under setting [1], 2.96 ± 0.37; under setting [2], 2.88 ± 0.57.
The matching figures for TIEELQQKILCAKAENARLVVNID [KRT34]: 3.37 ± 0.31 and 3.41 ± 0.48.
The matching figures for LKRRFSRLENRYEALAKQVASEMR [DAPK3]: 2.47 ± 0.26 and 2.69 ± 0.17.
The corresponding values for FQQDTKGLVDFRDVALALAALDGG [LPCAT4] are 2.48 ± 0.3 and 2.71 ± 0.2.
In the case of WFESVLEPGYIDSEIGTSDQIVPE [TRIB1], the protein stability index runs as follows: under setting [1], 4.44 ± 0.2; under setting [2], 4.09 ± 0.18.
The corresponding values for AEVVKILQTMLRQSAFLHLPLPEQ [INTS4] are 2.75 ± 0.51 and 2.89 ± 0.22.
The corresponding values for AHIALETLEGHQRAIMAHMTVEEI [FLOT1] are 3.25 ± 0.29 and 3.51 ± 0.32.
With HYIAGAHGNEVLGRELLLLLVQFV [CPXM2], the protein stability index turned out to be 2 ± 0.075 under setting [1] and 2.22 ± 0.37 under setting [2].
The matching figures for ISFTLYLIGFCMFVLSLVKKHYRL [CDS2]: 2.29 ± 0.48 and 2.44 ± 0.53.
The corresponding values for TTKCVRQYEGHVNEYAYLPLHVHE [DCAF4] are 2.92 ± 0.39 and 3.17 ± 0.2.
The matching figures for CSSSGKDGNLCLHVPNPPSGISFP [HESX1]: 3.15 ± 0.18 and 3.25 ± 0.33.
The sequence VCYQYPGYRGYQYILECDHHGGDY [CRYBA1] gave a protein stability index under setting [1] of 2.35 ± 0.4 and a protein stability index under setting [2] of 2.08 ± 0.18.
The matching figures for VEYFQQSAVAMYMLYEKQKQQNVA [ZBED1]: 2.4 ± 0.18 and 2.14 ± 0.28.
The corresponding values for SSYSSCYSFGSGGGYGSSFGGVDG [KRT17] are 2.69 ± 0.38 and 2.53 ± 0.2.
The matching figures for SFNILVEDRVKLFGIEIEVTDIND [PCDHGA10]: 2.17 ± 0.4 and 2.55 ± 0.59.
Regarding RLTREVEATRRALIDRMVNLHQA [DDIT3], the protein stability index reads like this: under setting [3], 3.44 ± 0.073; under setting [4], 3.83 ± 0.32.
For the sequence DETFLATSFLQHPWDESGSGCLPP [FOXJ1], the protein stability index reads like this: under setting [1], 4.15 ± 0.16; under setting [2], 4.11 ± 0.079.
As for EFCEPAFVVGNCLQIASDSHQYDR [PCMTD1], the protein stability index reads like this: under setting [1], 3.5 ± 0.49; under setting [2], 3.51 ± 0.31.
PAMRNSPTFKSFEERVETTVTSLK [TPD52L1]: the protein stability index reads like this: under setting [1], 4.61 ± 0.13; under setting [2], 4.42 ± 0.2.
The matching figures for TNSDTPTSFNHMDSDKLSGLWSRI [TOR1AIP2]: 3.21 ± 0.21 and 3.1 ± 0.39.
The corresponding values for TRDGFKLVMASLYHIYVALEEEIE [HMOX1] are 2.15 ± 0.52 and 2.56 ± 0.51.
The corresponding values for EGRPGAATFHVGGGPAQNAPHQQP [TFE3] are 4.79 ± 0.17 and 4.8 ± 0.24.
On to MERPLCSHLCSCLAMLALLSPLSL [LOXL2], for which the protein stability index runs as follows: under setting [1], 3.16 ± 0.19; under setting [2], 3.46 ± 0.36.
The matching figures for LEKVLEENAQKKRFNQVLKNLLHA [VPS39]: 2.85 ± 0.22 and 2.98 ± 0.23.
Regarding TDANLPSGGKGFKLRRQPSEPKRS [RAB22A], the protein stability index turned out to be 4.88 ± 0.41 under setting [1] and 5.08 ± 0.17 under setting [2].
The matching figures for LFGEKLSGTDAEETILNAFKMLDP [MYL5]: 3.56 ± 0.28 and 3.31 ± 0.35.
The corresponding values for EEGTSDSNTGSESNSATVEEPPTD [SMARCE1] are 5.36 ± 0.44 and 5.67 ± 0.2.
On to QLPISSENDSTPTVSTSEVTSQQE [TAF7L], for which the protein stability index reads like this: under setting [1], 5.53 ± 0.28; under setting [2], 5.5 ± 0.13.
WVFHHYVSTFLSGVMLTWPDGLMY [TMEM120A]: the protein stability index was 3.14 ± 0.17 under setting [1] and 3.11 ± 0.24 under setting [2].
The matching figures for TYEVRMRTNLPIFKLKESCVRRRY [SNX12]: 2.6 ± 0.15 and 2.54 ± 0.23.
GKYNAMVLELLGPSLEDLFDLCDR [CSNK1G3]: the protein stability index runs as follows: under setting [1], 2.92 ± 0.28; under setting [2], 2.18 ± 0.28.
The matching figures for EEEEEEEEAEAGEEAVPEEEGPTV [CHGA]: 5.34 ± 0.25 and 5.4 ± 0.25.
Sequence VTGLMEATQMMVDIDGDVLVFLEL [RHOBTB2] displayed a protein stability index under setting [1] of 3.31 ± 0.2 and a protein stability index under setting [2] of 3.29 ± 0.8.
In the case of SIALRNISLAKGPPGPKGDQGDEG [SCARA5], the protein stability index runs as follows: under setting [1], 4.68 ± 0.09; under setting [2], 4.86 ± 0.2.
The matching figures for KHGIEYQSKPLLSAFADIIHSLKE [FADS1]: 2.51 ± 0.44 and 2.81 ± 0.49.
The corresponding values for ALLKFKPGAFIAGVPVQPVLIRYP [LPCAT4] are 2.54 ± 0.73 and 2.39 ± 0.7.
The corresponding values for EHIADALRAIDFGTDEEEEEFIEE [TRIM63] are 5.34 ± 0.2 and 5.36 ± 0.32.
With RDAAIKKLATEAGVEVIVRISHTL [CRY1], the protein stability index reads like this: under setting [1], 2.83 ± 0.92; under setting [2], 2.62 ± 0.68.
The matching figures for LHQTIYNQACKLLSDDYEQVRSAA [INTS4]: 2.96 ± 0.48 and 3.09 ± 0.19.
The corresponding values for QTPTKEELDAIIEEVDEDGSGTID [TNNC2] are 5.67 ± 0.44 and 5.16 ± 0.28.
The matching figures for TKLPENQAIQMRLVDVACKHLTDT [INTS4]: 3.41 ± 0.11 and 3.58 ± 0.069.
Consider HEKTVDIYGHVTLMRAQRNYMVQT [PTPRD], for which the protein stability index by setting is: under setting [1], 2.32 ± 0.4; under setting [2], 2.18 ± 0.43.
The corresponding values for KSEYMEIEEDMNNSIAHYRQVNIR [KCNA1] are 3.34 ± 0.2 and 3.57 ± 0.53.
The matching figures for SKMDQLAKELTAEKRLEGQEEEED [CHGA]: 5.54 ± 0.34 and 5.42 ± 0.36.
Take EQREWVLKSSILIAMAVYTYLRLI [INTS3]: the protein stability index reads like this: under setting [1], 2.6 ± 0.59; under setting [2], 2.59 ± 0.45.
The corresponding values for TPVDMWSVGCIFAEMFRRKPLFCG [CDK4] are 2.98 ± 0.97 and 2.64 ± 0.61.
The corresponding values for VDEAAAESPSFLSLRKGASLSNGQ [NCK2] are 4.83 ± 0.14 and 5.08 ± 0.23.
The corresponding values for PGPGDDLCSDLEEAPEAELSQAPA [HES6] are 5.44 ± 0.23 and 5.43 ± 0.35.
On to LLCPLCQEEEQAETPMAPVPLGPL [TRIM15], for which the protein stability index under setting [1] was found to be 3.38 ± 0.67 and the protein stability index under setting [2] was determined as 3.73 ± 0.35.
The matching figures for RAPKVLGTTLVVGLLAGVGYFAFM [GDAP1]: 3.66 ± 0.29 and 3.17 ± 0.27.
The corresponding values for SAGNRTHKARTRPKARKQGVSPAD [ADAMTSL2] are 4.75 ± 0.94 and 5.07 ± 0.8.
The matching figures for ENIEVKEGGLYFERRPVAQSTDGA [SPSB2]: 4.55 ± 0.27 and 4.66 ± 0.18.
